Laboratory results reported in EP4755449A2 (CHUGAI SEIYAKU KABUSHIKI KAISHA, dated 2026).

T1: human Fc gamma RIIb on MDCK cells (human, UniProt P31994 43-310)
T1 sequence (looked up): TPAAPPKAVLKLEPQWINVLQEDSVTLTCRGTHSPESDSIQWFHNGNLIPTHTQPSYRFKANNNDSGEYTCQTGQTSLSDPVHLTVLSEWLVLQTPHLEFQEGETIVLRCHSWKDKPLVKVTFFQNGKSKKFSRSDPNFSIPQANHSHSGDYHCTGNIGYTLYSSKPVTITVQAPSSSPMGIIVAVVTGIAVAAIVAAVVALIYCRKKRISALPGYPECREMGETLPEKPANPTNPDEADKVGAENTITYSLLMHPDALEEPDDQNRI

T2: human Fc gamma RIIb extracellular domain, His-tagged (human, UniProt P31994 43-217)
T2 construct: also called FcgRIIb
T2 sequence: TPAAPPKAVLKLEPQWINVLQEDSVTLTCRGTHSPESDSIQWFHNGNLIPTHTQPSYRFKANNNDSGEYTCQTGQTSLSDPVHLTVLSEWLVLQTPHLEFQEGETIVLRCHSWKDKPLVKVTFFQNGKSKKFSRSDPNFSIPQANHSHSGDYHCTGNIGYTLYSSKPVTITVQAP


Assays:
[1] = target: T1, human Fc gamma RIIb on MDCK cells; assay: cell-based or functional assay
[2] = target: T2, human Fc gamma RIIb extracellular …; assay: SPR 25C, antigen-antibody complex injected over captured His-tagged receptor

| antigen fluorescence intensity inside cells (uptake of antigen-antibody complex) [1] | binding result [2] | Binder |
| --- | --- | --- |
| 7.5 fold of SG1 |  | MS103240H795-TT14/M103202L1045-SK1 (antibody, human IgG1, kappa) heavy: QVQLVESGGGLVQPGGSLRLSCAVSGIDLSHDDISWVRQAPGKGLEWVSIISYAGSTYYASWAKGRLTISKDTSKNQVVLTMTNMDPVDTATYYCARGVPAYSHGGDLWGQGTLVTVSSASTKGPSVFPLAPSSKSTSGGTAALGCLVKDYFPEPVTVSWNSGALTSGVHTFPAVLQSSGLYSLSSVVTVPSSSLGTQTYICNVNHKPSNTKVDKKVEPKSCDKTHTCPPCPAPEYLGGDSVFLFPPKPKDVLMISRTPEVTCVVIDVSHEDPEVKFNWYVDGVEVHNAKTKPREEQYNSTYRVVSVLPVLHQDWLNGKEYKCKVSNKALPKPIEKTISKAKGQPREPQVYTLPPSREEMTKNQVSLTCLVKGFYPSDIAVEWESNGQPENNYKTTPPVLDSDGSFFLYSKLTVDKSRWQQGNVFSCSVMHEALHNHYTQKSLSLSP light: DIVMTQSPATLSLSPGERATLSCTTSQSVYHENWLSWFQQKPGQPPKLLIYWASTLAYGVPSRFSGSGSGTDFTLTISSLQPEDAATYYCAGGYGGGRYAFGQGTKVEIKRTVAAPSVFIFPPSDEQLKSGTASVVCLLNNFYPREAKVQWKVDNALQSGNSQESVTEQDSKDSTYSLSSTLTLSKADYEKHKVYACEVTHQGLSSPVTKSFNRGEC |
|  | binds | MS1032LO06-P1540m (antibody, human IgG1, kappa, copies: 2 + 2) heavy: not shown light: DIVMTQSPATLSLSPGERATLSCTSSQSVYHANWLSWFQQKPGQPPKLLIYWASTLAYGVPSRFSGSGSGTDFTLTISSLQPEDAATYYCAGGYGGGRYAFGQGTKVEIKRTVAAPSVFIFPPSDEQLKSGTASVVCLLNNFYPREAKVQWKVDNALQSGNSQESVTEQDSKDSTYSLSSTLTLSKADYEKHKVYACEVTHQGLSSPVTKSFNRGEC |
|  | binds | MS103205H795-SG141/M103202L889-SK1 (antibody, human IgG1, kappa, copies: 2 + 2) heavy: not shown light: DIVMTQSPATLSLSPGERATLSCTSSQSVYHANWLSWFQQKPGQPPKLLIYWASTLAYGVPSRFSGSGSGTDFTLTISSLQPEDAATYYCAGGYGGGRYAFGQGTKVEIKRTVAAPSVFIFPPSDEQLKSGTASVVCLLNNFYPREAKVQWKVDNALQSGNSQESVTEQDSKDSTYSLSSTLTLSKADYEKHKVYACEVTHQGLSSPVTKSFNRGEC |
